System: Jurkat T cells
Experiment: Apoptosis/toxicity of peptide alone in Jurkat T cells, Annexin V/PI
Assay type: cell-based
Protocol: FIG. 8A: Flow cytometry histogram showing propidium iodide (PI) (FL3) labeling of Jurkat T cells without or with 200 μM of hGal-7(129-135). FIG. 8B: Histogram showing the average percentage of Annexin-V (AV) positive Jurkat T cells in the presence of increasing concentrations of […]. FIG. 8C: Flow cytometry histogram showing PI (FL3) labeling of Jurkat T cells without or with 200 μM of PACAP28-38 FIG. 8D: Histogram showing the average percentage of AV-positive Jurkat T cells in the presence of increasing concentrations of PACAP28-38. The percentage of cell death was obtained as described above. Error bars represent standard deviation. Significance was calculated with respect to AF samples. Results are representative of three independent experiments.
Apoptosis assays with Annexin V/PI staining. Apoptosis was measured by flow cytometry using FITC-labeled Annexin V (Biolegend®, San Diego, Calif., USA) and propidium iodide. Briefly, the corresponding dilutions of recombinant hGal-7 and hGal-7(129-135) peptides were pre-incubated for 1 h at 4° C. in serum-free RPMI 1640 medium. 2.5×10^5 Jurkat cells were then harvested in the same medium and incubated with their corresponding dilutions at 37° C. for 4 h. Cells were washed once in PBS and once in binding buffer (0.01 M HEPES, 0.14 M NaCl, 2.5 mM CaCl2, pH 7.4). Cells were then incubated for 15 min with Annexin V in the dark at room temperature. A total of 400 μL of binding buffer containing 0.25 μg/mL propidium iodide was added to the cells before analysis by flow cytometry.

For “H-Leu-Asp-Ser-Val-Arg-Ile-Phe-NH2 (H-LDSVRIF-NH2; listed as Homo sapiens) [hGal-7(129-135), peptide corresponding to residues 129-135 of hGal-7]”, the “toxicity in Jurkat T cells” value (PI labeling at 200 μM, Annexin V at increasing concentrations, FIGS. 8A to 8D) was “do not induce toxicity in Jurkat T cells” and the “induction of apoptosis by peptide alone” value (peptide alone, FIG. 8) was “did not induce apoptosis in Jurkat T cells”.
